From patent US20200231654A1 (Daiichi Sankyo, published 2020)

Columns and labels:
[1] = target: T1, biotin-labeled active hMMP-9(cat)_FLAG_Avi (human, UniProt P14780 107-449, biotin on the Avi tag (biotin ligase BirA)); assay: ELISA, biotinylated target on streptavidin plate, anti-S-tag HRP detection
T1 construct: His tag and propeptide removed; also called active human MMP-9 enzyme active domain
Description: (§1) The biotin-labeled pro-hMMP-9(cat)_His6_FLAG_Avi obtained in (2-1-6) or biotin-labeled active hMMP-9(cat)_FLAG_Avi obtained in (2-1-7) was immobilized on a streptavidin coated 96-well plate (Thermo Fisher Scientific). After blocking with 3% BSA, 1 to 1,000 nM of the binding peptides were added, and reacted at room temperature for 1.5 hours. After washing, goat anti-S-Tag HRP conjugated (Bethyl Laboratories, Inc.) was added, and reacted at room temperature for 1 hour. After washing, substrates of ELISA POD substrate A.B.T.S kit (Nacalai Tesque Inc.) were added, and reacted at room temperature.

[2] = target: T2, biotin-labeled pro-hMMP-9(cat)_His6_FLAG_Avi (human, UniProt P14780 20-449, biotin on the Avi tag (biotin ligase BirA)); assay: as above
T2 construct: Secretion signal Met1-Ala19 left out; also called pro human MMP-9 enzyme active domain; not shown: His tag (His6 by the construct's name)
Description: as §1

active hMMP-9(cat) = active hMMP-9(cat) (human, UniProt P14780 107-449); assay: cell-based or functional assay
active hMMP-9(cat)_Y179A = active hMMP-9(cat)_Y179A (human, UniProt P14780 107-449); assay: cell-based or functional assay
active hMMP-9(cat)_D185A = active hMMP-9(cat)_D185A (human, UniProt P14780 107-449); assay: cell-based or functional assay
active hMMP-9(cat)_F192A = active hMMP-9(cat)_F192A (human, UniProt P14780 107-449); assay: cell-based or functional assay
active hMMP-9(cat)_P193A = active hMMP-9(cat)_P193A (human, UniProt P14780 107-449); assay: cell-based or functional assay
active hMMP-9(cat)_Y393A = active hMMP-9(cat)_Y393A (human, UniProt P14780 107-449); assay: cell-based or functional assay
active hMMP-9(cat)_L397A = active hMMP-9(cat)_L397A (human, UniProt P14780 107-449); assay: cell-based or functional assay
active hMMP-9(cat)_V398A = active hMMP-9(cat)_V398A (human, UniProt P14780 107-449); assay: cell-based or functional assay
active hMMP-9(cat)_M422I = active hMMP-9(cat)_M422I (human, UniProt P14780 107-449); assay: cell-based or functional assay
active hMMP-9(cat)_Y423A = active hMMP-9(cat)_Y423A (human, UniProt P14780 107-449); assay: cell-based or functional assay
active hMMP-9(cat)_R424T = active hMMP-9(cat)_R424T (human, UniProt P14780 107-449); assay: cell-based or functional assay
hMMP-9(cat)_E402Q_His6 = target: T3, hMMP-9(cat)_E402Q_His6 (human, UniProt P14780 107-449); assay: size exclusion chromatography of the mixture
T3 construct: also called human MMP-9 enzyme active domain E402Q mutant; human MMP-9 E402Q mutant; not shown: His tag (His6 by the construct's name)
Description: After the reaction, 10 μl of the reaction solution was analyzed by size exclusion chromatography. The chromatographic conditions were as follows.

active hMMP-9(cat)_F110A = active hMMP-9(cat)_F110A (human, UniProt P14780 107-449); assay: cell-based or functional assay
active hMMP-9(cat)_L187A = active hMMP-9(cat)_L187A (human, UniProt P14780 107-449); assay: cell-based or functional assay
active hMMP-9(cat)_Q199G = active hMMP-9(cat)_Q199G (human, UniProt P14780 107-449); assay: cell-based or functional assay
active hMMP-9(cat)_Y420A = active hMMP-9(cat)_Y420A (human, UniProt P14780 107-449); assay: cell-based or functional assay
Sequence of active hMMP-9(cat)_Y420A (P14780 107-449 Y420A): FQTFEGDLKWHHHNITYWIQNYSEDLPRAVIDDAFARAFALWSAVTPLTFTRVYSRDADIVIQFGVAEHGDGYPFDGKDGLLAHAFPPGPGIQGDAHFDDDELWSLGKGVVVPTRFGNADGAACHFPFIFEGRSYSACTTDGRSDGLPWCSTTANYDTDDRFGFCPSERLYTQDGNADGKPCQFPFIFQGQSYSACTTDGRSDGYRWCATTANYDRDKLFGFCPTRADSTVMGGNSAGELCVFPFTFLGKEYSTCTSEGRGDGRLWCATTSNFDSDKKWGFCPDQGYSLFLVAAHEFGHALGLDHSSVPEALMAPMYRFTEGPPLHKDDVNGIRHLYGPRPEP

T2 sequence (P14780 other isoform, or with tags, fused parts or gaps): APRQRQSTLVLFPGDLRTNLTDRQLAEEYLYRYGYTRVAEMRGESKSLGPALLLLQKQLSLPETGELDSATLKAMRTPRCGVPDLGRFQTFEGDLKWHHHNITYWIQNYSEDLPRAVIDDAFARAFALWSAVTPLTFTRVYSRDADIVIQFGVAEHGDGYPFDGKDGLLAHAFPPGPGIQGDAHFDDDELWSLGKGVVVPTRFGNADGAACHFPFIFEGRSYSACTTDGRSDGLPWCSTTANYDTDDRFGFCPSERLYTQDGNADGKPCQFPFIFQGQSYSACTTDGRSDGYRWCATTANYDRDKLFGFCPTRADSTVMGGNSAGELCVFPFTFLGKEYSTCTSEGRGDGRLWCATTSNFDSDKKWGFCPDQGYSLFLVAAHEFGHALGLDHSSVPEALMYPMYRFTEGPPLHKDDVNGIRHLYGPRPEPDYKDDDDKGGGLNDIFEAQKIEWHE
T1 sequence (P14780 other isoform, or with tags, fused parts or gaps): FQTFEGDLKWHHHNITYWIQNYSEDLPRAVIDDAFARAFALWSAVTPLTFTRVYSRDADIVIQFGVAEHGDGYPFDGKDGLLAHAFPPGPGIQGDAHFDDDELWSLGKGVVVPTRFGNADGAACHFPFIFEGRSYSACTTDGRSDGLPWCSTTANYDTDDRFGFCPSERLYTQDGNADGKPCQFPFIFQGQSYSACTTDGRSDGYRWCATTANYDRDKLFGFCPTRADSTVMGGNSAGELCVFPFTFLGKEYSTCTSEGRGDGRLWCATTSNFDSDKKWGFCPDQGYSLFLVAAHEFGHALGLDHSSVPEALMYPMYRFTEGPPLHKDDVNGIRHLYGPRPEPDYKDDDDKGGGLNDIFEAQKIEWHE
Sequence of active hMMP-9(cat)_M422I (P14780 107-449 M422I): as the sequence (P14780 107-449 Y420A) above, with A314Y, M316I counted along it
Sequence of active hMMP-9(cat)_Y423A (P14780 107-449 Y423A): as the sequence (P14780 107-449 Y420A) above, with A314Y, Y317A counted along it
T3 sequence (P14780 107-449 E402Q): as the sequence (P14780 107-449 Y420A) above, with E296Q, A314Y counted along it
Sequence of active hMMP-9(cat)_F192A (P14780 107-449 F192A): as the sequence (P14780 107-449 Y420A) above, with F86A, A314Y counted along it
Sequence of active hMMP-9(cat)_Y179A (P14780 107-449 Y179A): as the sequence (P14780 107-449 Y420A) above, with Y73A, A314Y counted along it
Sequence of active hMMP-9(cat) (P14780 107-449): as the sequence (P14780 107-449 Y420A) above, with A314Y counted along it
Sequence of active hMMP-9(cat)_Y393A (P14780 107-449 Y393A): as the sequence (P14780 107-449 Y420A) above, with Y287A, A314Y counted along it
Sequence of active hMMP-9(cat)_V398A (P14780 107-449 V398A): as the sequence (P14780 107-449 Y420A) above, with V292A, A314Y counted along it
Sequence of active hMMP-9(cat)_L397A (P14780 107-449 L397A): as the sequence (P14780 107-449 Y420A) above, with L291A, A314Y counted along it
Sequence of active hMMP-9(cat)_D185A (P14780 107-449 D185A): as the sequence (P14780 107-449 Y420A) above, with D79A, A314Y counted along it
Sequence of active hMMP-9(cat)_Q199G (P14780 107-449 Q199G): as the sequence (P14780 107-449 Y420A) above, with Q93G, A314Y counted along it
Sequence of active hMMP-9(cat)_P193A (P14780 107-449 P193A): as the sequence (P14780 107-449 Y420A) above, with P87A, A314Y counted along it
Sequence of active hMMP-9(cat)_R424T (P14780 107-449 R424T): as the sequence (P14780 107-449 Y420A) above, with A314Y, R318T counted along it
Sequence of active hMMP-9(cat)_F110A (P14780 107-449 F110A): as the sequence (P14780 107-449 Y420A) above, with F4A, A314Y counted along it
Sequence of active hMMP-9(cat)_L187A (P14780 107-449 L187A): as the sequence (P14780 107-449 Y420A) above, with L81A, A314Y counted along it

B1: wild type SPINK2 (other)
chain: GSGMKETAAAKFERQHMDSPDLGTDDDDKAMADIGSANSDPQFGLFSKYRTPNCSQYRLPGCPRHFNPVCGSDMSTYANECTLCMKIREGGHNIKIIRNGPCGASAAA
notes: also called WT; human SPINK2
binding result [1]: no binding (tested: 1 to 1,000 nM) | binding result [2]: no binding (tested: 1 to 1,000 nM)

B2: active MMP-9-binding peptide M91011 (designed binder)
chain: GSGMKETAAAKFERQHMDSPDLGTDDDDKAMADIGSANSDPQFGLFSKYRTPNCMMYKYAQCSHKSQPVCGSDMSTYANECTLCMKIREGGHNIKIIRNGPCGASAAA
notes: SPINK2 mutant as prepared in (1-2): Stag+linker 1 at the N-terminal, C-terminal 6-mer at the C-terminal
IC50 of inhibition of substrate peptide degradation (active hMMP-9(cat)): 0.017 µM | IC50 of enzyme inhibition relative to the wild type (active hMMP-9(cat)_Y179A): 4.9 times | IC50 of enzyme inhibition relative to the wild type (active hMMP-9(cat)_D185A): 19 times | IC50 of enzyme inhibition relative to the wild type (active hMMP-9(cat)_F192A): 5 times | IC50 of enzyme inhibition relative to the wild type (active hMMP-9(cat)_P193A): 6.5 times | IC50 of enzyme inhibition relative to the wild type (active hMMP-9(cat)_Y393A): > 57.6 times | IC50 of enzyme inhibition relative to the wild type (active hMMP-9(cat)_L397A): 3.5 times | IC50 of enzyme inhibition relative to the wild type (active hMMP-9(cat)_V398A): 4.8 times | IC50 of enzyme inhibition relative to the wild type (active hMMP-9(cat)_M422I): 2.6 times | IC50 of enzyme inhibition relative to the wild type (active hMMP-9(cat)_Y423A): > 20 times | IC50 of enzyme inhibition relative to the wild type (active hMMP-9(cat)_R424T): 2.7 times | binding result (hMMP-9(cat)_E402Q_His6): no binding (tested: 75 µM peptide with 25 µM target) | binding result [2]: no binding (tested: 1 µM)

B3: active MMP-9-binding peptide M91005 (designed binder)
chain: GSGMKETAAAKFERQHMDSPDLGTDDDDKAMADIGSANSDPQFGLFSKYRTPNCRKRGGPSCQMSYNPVCGSDMSTYANECTLCMKIREGGHNIKIIRNGPCGASAAA
notes: as for B2
IC50 of inhibition of substrate peptide degradation (active hMMP-9(cat)): 0.017 µM | IC50 of enzyme inhibition relative to the wild type (active hMMP-9(cat)_F110A): 4 times | IC50 of enzyme inhibition relative to the wild type (active hMMP-9(cat)_Y179A): 3.2 times | IC50 of enzyme inhibition relative to the wild type (active hMMP-9(cat)_L187A): 6.7 times | IC50 of enzyme inhibition relative to the wild type (active hMMP-9(cat)_F192A): > 57.8 times | IC50 of enzyme inhibition relative to the wild type (active hMMP-9(cat)_Q199G): 2.3 times | IC50 of enzyme inhibition relative to the wild type (active hMMP-9(cat)_Y393A): 2.7 times | IC50 of enzyme inhibition relative to the wild type (active hMMP-9(cat)_L397A): 2.2 times | IC50 of enzyme inhibition relative to the wild type (active hMMP-9(cat)_V398A): 2.2 times | IC50 of enzyme inhibition relative to the wild type (active hMMP-9(cat)_Y420A): 3.1 times | IC50 of enzyme inhibition relative to the wild type (active hMMP-9(cat)_M422I): 2.6 times | IC50 of enzyme inhibition relative to the wild type (active hMMP-9(cat)_Y423A): 13.2 times | binding result (hMMP-9(cat)_E402Q_His6): no binding (tested: 75 µM peptide with 25 µM target) | binding result [2]: no binding (tested: 1 µM)

B4: active MMP-9-binding peptide M91001 (designed binder)
chain: GSGMKETAAAKFERQHMDSPDLGTDDDDKAMADIGSANSDPQFGLFSKYRTPNCQRGIGPSCQMSYKPVCGSDMSTYANECTLCMKIREGGHNIKIIRNGPCGASAAA
notes: as for B2
binding result [1]: binds | binding result [2]: no binding (tested: 1 µM)

B5: active MMP-9-binding peptide M91010 (designed binder)
chain: GSGMKETAAAKFERQHMDSPDLGTDDDDKAMADIGSANSDPQFGLFSKYRTPNCRKVGEPACQMSFNPVCGSDMSTYANECTLCMKIREGGHNIKIIRNGPCGASAAA
notes: as for B2
binding result [1]: binds | binding result [2]: no binding (tested: 1 µM)

B6: active MMP-9-binding peptide M91012 (designed binder)
chain: GSGMKETAAAKFERQHMDSPDLGTDDDDKAMADIGSANSDPQFGLFSKYRTPNCRVRGGPSCQMSFNPVCGSDMSTYANECTLCMKIREGGHNIKIIRNGPCGASAAA
notes: as for B2
binding result [1]: binds | binding result [2]: no binding (tested: 1 µM)

B7: active MMP-9-binding peptide M91004 (designed binder)
chain: GSGMKETAAAKFERQHMDSPDLGTDDDDKAMADIGSANSDPQFGLFSKYRTPNCRQRKGPSCQMAFQPVCGSDMSTYANECTLCMKIREGGHNIKIIRNGPCGASAAA
notes: as for B2
binding result [1]: binds | binding result [2]: no binding (tested: 1 µM)

B8: active MMP-9-binding peptide M91014 (designed binder)
chain: GSGMKETAAAKFERQHMDSPDLGTDDDDKAMADIGSANSDPQFGLFSKYRTPNCVMYKYAQCSHKYKPVCGSDMSTYANECTLCMKIREGGHNIKIIRNGPCGASAAA
notes: as for B2
binding result [1]: binds | binding result [2]: no binding (tested: 1 µM)

B9: active MMP-9-binding peptide M91002 (designed binder)
chain: GSGMKETAAAKFERQHMDSPDLGTDDDDKAMADIGSANSDPQFGLFSKYRTPNCRTGRGPACQMGFQPVCGSDMSTYANECTLCMKIREGGHNIKIIRNGPCGASAAA
notes: as for B2
binding result [1]: binds | binding result [2]: no binding (tested: 1 µM)
